Data: patent publication US20110236309A1

What was measured:
[1] = target: TGF-β1 (Homo sapiens (Human)) (UniProt P01137)
[2] = target: TGF-β2 (Homo sapiens (Human)) (UniProt P61812)
[3] = target: T1, TGF-β3 (Homo sapiens (Human)) (UniProt P10600)
T1 sequence: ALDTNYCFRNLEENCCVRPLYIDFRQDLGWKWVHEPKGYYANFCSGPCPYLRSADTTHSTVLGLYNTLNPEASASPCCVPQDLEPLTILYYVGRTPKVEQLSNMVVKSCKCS

pan-specific TGF-β neutralizing antibody 1D11 (R&D Systems)
IC50 for TGF-β1 (neutralization, Mv1Lu luciferase reporter cells) [1]: 1.43 nM
IC50 for TGF-β2 (neutralization, Mv1Lu luciferase reporter cells) [2]: 8.67 nM
IC50 for TGF-β3 (neutralization, Mv1Lu luciferase reporter cells) [3]: 0.029 nM
